Assay [1] concerns the target MT1-MMP (R&D, 918-MP-010) (UniProt P50281). Put plainly: enzyme inhibition kinetics with fluorescent substrate Mca-K-P-L-G-L-Dpa-A-R-NH2, LS-55 spectrofluorimeter.
For assay [2] the target is unchanged. Put plainly: enzyme inhibition kinetics with fluorescent substrate, LS-55 spectrofluorimeter.

As to “Wild Type TIMP-1 (inhibitory domain) (from UniProt P01033 24-149)”, the Ki^app in assay [1] is 178 nM; in assay [2], over 150 nM.
